Experimental data taken from patent US11643691B2, “Predictive biomarkers for cancer immunotherapy and methods of using same” (Duke University, priority 2018, dated 2023).

How the values were obtained:
[1] = system: CD4+FoxP3+ Treg cells; test: In vitro Treg cell assay (conditioned DCs with naive CD4+ T cells); assay type: cell-based, mice; details: treated DCs co-cultured with naive CD4+ T cells
Experimental: (§1) Dendritic Cell Conditioning: DCs were treated with Wnt3a (100 ng/mL), Wnt5a (200 ng/mL), LPS (1 μg/mL), 1-MT (1 mM), 2DG (1 mM), or ETO (100 μM), 2-DG(2-deoxy-d-glucose, 1 mM), Oligomycin (1 μM), succinylacetone (250 μM), or vehicle control either for 24 or 48 hrs prior to their use in both in vitro and in vivo experiments.
Treg Cell Assays: For in vivo Treg cell assays, DCs (C57, H-2b) were pre-treated for 48 hours and delivered by intradermal injection into the footpad of Foxp3-mRFP mice. Draining inguinal and popliteal lymph nodes were resected 5 days later and analyzed for CD4+Foxp3+ Treg cells. For in vitro Treg cell assays, DCs (Balb/c, H-2d) were pre-treated for either 24 or 48 hrs, and re-plated at a 1:3 DC:T-cell ratio with purified allogeneic naive Foxp3-mRFP(H-2b) CD44loCD62LhiCD4+ Tcells. These co-cultures were incubated for 6 days and quantitated for CD4+FoxP3+ Treg cells by flow cytometry.

[2] = system: BRAF^V600EPTEN^−/− melanoma cell line; test: Qrt-PCR of chemokines in melanoma cell line after rWnt5a; assay type: cell-based; details: vs vehicle ctrl
Excerpt: (A) TCGA melanoma database gene expression association analysis of CXCL5, CXCL2, and CXCR2 with WNT5A. (B) Whole tumor tissue Western blot analysis of Wnt5a, nuclear Yap-1, CXCL5 and β-actin (loading control). Representative blot shown (n=3). (C) Plasma CXCL5 ELISA following anti-PD-1 ab therapy vs IgG isotype ctrl therapy in the transgenic BRAF^V600EPTEN^−/− melanoma model (n=5). bottom, plasma CXCL5 dot blot following anti-PD-1 ab therapy vs IgG isotype ctrl therapy in the transgenic BRAF^V600EPTEN^−/− melanoma model. Representative of 3 independent experiments. pseudo-red reflective of density. (D) Qrt-PCR analysis of Cxcl5, Cxcl2, and Cxcl1 in the BRAF^V600EPTEN^−/− melanoma cell line following treatment with recombinant Wnt5a (rWnt5a) vs vehicle ctrl (n=3). (E) Western blot analysis of Yap-1 expression in total cellular lysates (top) and nuclear lysates (middle) following treatment of BRAF^V600EPTEN^−/− melanoma cells with rWnt5a at various time points. β-actin, total lysate loading ctrl. […], nuclear lysate loading ctrl. (bottom) rWnt5a induction of CXCL5 in the absence and presence of verteporfin (YAP inhibitor) or XAV939 (β-catenin inhibitor). All representative of 3 independent experiments. […]

[3] = system: DCs; test: Extracellular acidification rate (ECAR), Seahorse XFe24 flux analysis of DCs; assay type: cell-based, Murine
Experimental: as §1
Cellular Energy Metabolism Analysis: DC energy metabolism was measured using the XFe24 extracellular flux analyzer (Seahorse Bioscience), with the glycolysis stress test kit and the mitochondrial stress test kit as previously described (Everts et al., 2014, Zhao and Klimecki, 2015). For experiments involving LPS injection, DCs were plated in XFe24 plates (200,000/well in 500p1) and treated with LPS for 48 hours prior to XF analysis. DCs were washed and analyzed in XF media (RPMI without sodium bicarbonate, 10 mM glucose, 1% FBS, 2 mM L-glutamine). ECAR was analyzed in real-time with or without LPS stimulation. For experiments involving BrafV600EPten−/− cell line-derived conditioned media (CM), collected CM was concentrated and desalted with an Amicon Ultra 30K filter according to manufacturer's recommendations (Milipore). Final concentrate was further washed with XF media 3 times, added to DCs immediately prior to OCR analysis. For standard ECAR analysis, XF media (without glucose) was used to wash cells prior to the assay. A final concentration of 10 mM glucose, 1 μM oligomycin, 50 mM 2-DG(sigma) were injected through XFe24 port A-C. For standard OCR analysis, XF media (with 10 mM glucose) was used to wash cells, a final concentration of 1 μM oligomycin, 1.5 μM FCCP (fluoro-carbonyl cyanide phenylhydrazone), 100 nM rotenone, and 1 μM of antimycin-A (Sigma) were injected through XFe24 port A-C.

[4] = system: DC IDO; test: IDO enzymatic assay (kynurenine in conditioned media by HPLC); assay type: cell-based, Murine; details: purified DC cultures or tumor-infiltrating DCs
Experimental: IDO enzymatic assay and Hemin assay: DC IDO enzyme activity was measured by the conversion of L-tryptophan to L-kynurenine in conditioned media by HPLC (Pallotta et al., 2011). Intracellular hemin was measured using a colorimetric assay kit (BioVision).

B1: Wnt5a: Recombinant Human/Mouse Wnt5a Protein (R&D Systems) (protein, UniProt P41221 62-380, looked up)
Protein Wnt-5a: IIGAQPLCSQLAGLSQGQKKLCHLYQDHMQYIGEGAKTGIKECQYQFRHRRWNCSTVDNTSVFGRVMQIGSRETAFTYAVSAAGVVNAMSRACREGELSTCGCSRAARPKDLPRDWLWGGCGDNIDYGYRFAKEFVDARERERIHAKGSYESARILMNLHNNEAGRRTVYNLADVACKCHGVSGSCSLKTCWLQLADFRKVGDALKEKYDSAAAMRLNSRGKLVQVNSRFNSPTTQDLVYIDPSPDYCVRNESTGSLGTQGRLCNKTSEGMDGCELMCCGRGYDQFKTVQTERCHCKFHWCCYVKCKKCTEIVDQFVCK
In the case of B1, the “DC-mediated Treg cell differentiation in vitro” value [1] is reported as “enhanced Treg cell differentiation in vitro”, the “expression of Cxcl5, Cxcl2 and Cxcl1” value [2] is reported as “increased expression of Cxcl5, Cxcl2, and Cxcl1” and the “LPS-induced glycolytic surge (ECAR)” value ([3]; DCs pre-treated) is reported as “suppressed the lipopolysaccharide (LPS)-induced glycolytic surge”. The “glycolysis (ECAR) acutely after stimulation” value ([3]; within 90 min of stimulation) was “failed to impact glycolysis” and the “DC IDO enzymatic activity (kynurenine)” value [4] was “promoted DC IDO enzymatic activity”.
